For series [1], the system named is BON‐SSTR2 cells. Briefly: Toxicity test, metabolic activity (AlamarBlue). It counts as cell-based, human. As to conditions: 96 h treatment, up to a concentration of 10 μM, quadruplicates, n=2 (Figure S2). On the procedure:
(§1) Toxicity tests: BON‐SSTR2 cells were seeded in quadruplicates in 96 well plates at a density of 5,000 cells per well and grown overnight. […] Metabolic activity and cell number were determined after another 96 h. For this, 100 μL medium containing AlamarBlue™ redox indicator (ThermoFisher) were added on top of each well, incubated for 3–4 h and the resulting fluorescence was measured using an EnVision Multilabel Plate Reader (PerkinElmer). Afterwards, the supernatant was removed; cells were fixated with 4 % v/v formaldehyde for 10 min and stained with 1 μg/mL DAPI in PBS/0.1 % v/v Triton for another 10 min. Four fields per well were imaged using an IN Cell Analyzer 1000 (GE Healthcare) with a 4x objective and nuclei were counted by Investigator software (GE Healthcare). All values were normalized to the control treated with vehicle and analyzed using GraphPad Prism 5.04.
For orientation: Resazurin is reduced to fluorescent resorufin, in cell work by metabolically active cells.

Series [2] deals with T1, ratSSTR2‐GFP fusion protein (Rattus norvegicus, UniProt P30680).
T1 construct: expressed in transfected cells
As to the kind of experiment: Endocytosis / receptor internalization assay in RIN1038 cells. It is filed as cell-based. From the text:
Endocytosis assay: Rat insulinoma RIN1038 cells stably expressing a ratSSTR2‐GFP fusion protein almost exclusively show green cell membrane fluorescence in the resting state while in the presence of a functional agonist, the receptor‐GFP fusion protein is translocated to a perinuclear endocytic vesicle compartment. This shift is readily recognized by inspection of the fluorescent image and can be detected by software‐based quantitation algorithms. […] Mounted cells were imaged using a confocal laser‐scanning microscope (LSM510, Carl Zeiss) with a helium–neon laser at 488 and 543 nm, BP505‐525 and LP560 emission filters and a 63x NeoFluar oil immersion objective. […] For automated microscopy, microscopic fluorescence images were recorded by an IN Cell Analyzer 1000 (GE Healthcare) with 20x magnification at 5 frames per well in a 96 well format. Image processing was performed with In Cell Investigator software (GE Healthcare) applying the provided granularity algorithm. The output of the analysis was indicated as vesicle area/cell and was utilized for calculation of concentration‐response curves resulting in the determination of half‐maximal activity (EC50).

Series [3] deals with BON‐SSTR2 cells. Briefly: Toxicity test, cell number (DAPI nuclei counting). It counts as cell-based, human. As to conditions: 96 h treatment, up to a concentration of 10 μM, quadruplicates, n=2 (Figure S2). On the procedure:
as §1

The next series can be described thus: in vivo. As to conditions: female, NMRI-Foxn1nu/Foxn1nu nude, mouse, iv, total radioactivity.

Read-outs that look alike come from different tables or passages of the source.

In general, EC50 refers to the concentration giving half of the maximal effect. As usually defined, the tissue uptake is the share of the injected amount in each gram of the tissue.

T1 sequence (P30680 whole entry, the tested form may be a part): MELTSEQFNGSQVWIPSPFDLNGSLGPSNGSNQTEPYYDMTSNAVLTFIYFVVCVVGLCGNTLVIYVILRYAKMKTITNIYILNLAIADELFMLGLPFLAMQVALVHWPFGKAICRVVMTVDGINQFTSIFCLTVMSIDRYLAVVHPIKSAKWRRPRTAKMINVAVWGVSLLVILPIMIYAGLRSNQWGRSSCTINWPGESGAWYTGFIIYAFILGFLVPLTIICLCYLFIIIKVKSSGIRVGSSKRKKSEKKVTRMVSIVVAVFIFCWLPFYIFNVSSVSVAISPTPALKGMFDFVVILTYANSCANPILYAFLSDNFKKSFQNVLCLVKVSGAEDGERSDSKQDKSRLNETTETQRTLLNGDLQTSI

Take `C[C@@H](O)[C@H](NC(=O)[C@@H]1CSSC[C@H](NC(=O)[C@@H](Cc2ccccc2)NC(=O)c2ccc3c(c2)C(C)(C)/C(=C/C=C/C2=[N+](C)c4ccc(CNC(=O)CNC(=O)CN5CCN(CC(=O)O)CCN(CC(=O)O)CCN(CC(=O)O)CC5)cc4C2(C)C)N3CCCCS(=O)(=O)[O-])C(=O)N[C@@H](Cc2ccc(O)cc2)C(=O)N[C@H](Cc2c[nH]c3ccccc23)C(=O)N[C@@H](CCCCN)C(=O)N[C@@H]([C@@H](C)O)C(=O)N1)C(=O)O` [DOTA‐ICC‐TATE]: the “inhibition of metabolism (AlamarBlue fluorescence, % control)” value in the series with BON‐SSTR2 cells [1] is “does not inhibit”. The EC50 in series [2] (RIN1038-rSSTR2GFP, axis log DOTA-ICC-TATE [M], R square 0.9899, read-out: EC50 internalization as printed in Figure S2 D) was found to be 4.21e-10 M; in series [2] (RIN1038 ratSSTR2‐GFP cells, eleven concentrations 3 pM–300 nM, 30 min, 37 °C, quadruplicates, vesicle area/cell, read-out: EC50 of SSTR2‐GFP fusion protein internalization), 4.2e-10 M. Moreover, the “cellular uptake: colocalization of ICC dye signal with internalized GFP‐fused SSTR2” value in series [2] (RIN1038 cells overexpressing SSTR2‐GFP, 1 μM conjugate, 30 min, 37 °C, confocal microscopy) was “clearly colocalized”. Further, the “inhibition of proliferation (cell count, DAPI, % control)” value in the series with BON‐SSTR2 cells [3] is listed as “does not inhibit”.

For the compound `C[C@@H](O)[C@H](NC(=O)[C@@H]1CSSC[C@H](NC(=O)[C@@H](Cc2ccccc2)NC(=O)c2ccc3c(c2)C(C)(C)/C(=C/C=C/C2=[N+](C)c4ccc(CNC(=O)CNC(=O)CN5CCN(CC(=O)O)CCN(CC(=O)O)CCN(CC(=O)O)CC5)cc4C2(C)C)N3CCCCS(=O)(=O)[O-])C(=O)N[C@@H](Cc2ccc(O)cc2)C(=O)N[C@H](Cc2c[nH]c3ccccc23)C(=O)N[C@@H](CCCCN)C(=O)N[C@@H]([C@@H](C)O)C(=O)N1)C(=O)O` [^68Ga‐DOTA‐ICC‐TATE, metal not drawn], the tissue uptake at 1 h was approximately 30 %ID/g in “in vivo” (ex vivo biodistribution uptake in kidneys) and 5 %ID/g in “in vivo” (ex vivo biodistribution uptake in liver).

The values above are taken from article PMC8048842, “A Cyanine‐Bridged Somatostatin Hybrid Probe for Multimodal SSTR2 Imaging in Vitro and in Vivo: Synthesis and Evaluation” (Chembiochem, 2021).
